2 molecules from patent US8058396B2, “Cystatin C as an antagonist of TGF-β and methods related thereto” (National Jewish Health, priority 2003, dated 2011) can be followed below.

One assay relates to HT1080 cells. In words: Migration of HT1080 cells to fibronectin. The class given is cell-based, human. To be noted: overexpression in HT1080 cells; data not shown.
In another assay the test system is 3T3-L1 fibroblasts. In words: 3T3-L1 cell invasion through Matrigel matrices. As to conditions: retroviral expression in 3T3-L1 cells, 48 hr; for serum-stimulated (tonic) 3T3-L1 cell invasion: relative to GFP-expressing cells; for TGF-β1-stimulated 3T3-L1 cell invasion: TGF-β1 5 ng/ml, p<0.05. The assay is classed as cell-based, murine. Here is the method: The effect CystC and D14CystC on the invasion of HT1080 and 3T3-L1 cells was determined as described previously (42). Briefly, upper chambers were coated with 100 μl of diluted Matrigel (1:50 in serum-free media), which was allowed to evaporate to dryness overnight at room temperature. The following morning the Matrigel mixtures were rehydrated and subsequently cultured with control-, CystC-, or D14CystC-expressing HT1080 or 3T3-L1 cells at a density of 100,000 cells/chamber. Cellular invasion was stimulated by addition of 2% serum to the lower chambers. Forty-eight hr later, the cells were washed twice in ice-cold PBS and immediately fixed for 15 min with 95% ethanol. Cells remaining in the upper chambers were removed with a cotton swab, whereas those remaining in the lower chamber were stained with crystal violet. Quantifying invading cells was determined through two independent measures, which yielded identical results: (i) manual counting under a light microscope, and (ii) crystal violet dye extraction by incubation of the membranes in 10% acetic acid, followed by spectrophotometry at 590 nm.
In some experiments, the effects of recombinant CystC and D14CystC on 3T3-L1 cell invasion was examined. To do so, 3T3-L1 cells (100,000 cells/chamber) were allowed to invade through Matrigel […], together with or without 5 ng/ml of TGF-β1. All subsequent procedures were performed as described above.
GFP-, CystC-, or Δ14CystC-expressing 3T3-L1 cells were allowed to invade through Matrigel-coated filters in the absence or presence of TGF-β1 (5 ng/ml) for 48 hr, and the results are shown in FIG. 2A. […] Data are the mean (±SE) of four independent experiments presented as the percent invasion relative to GFP-expressing 3T3-L1 cells.
Moreover, the inhibitory effects of CystC on 3T3-L1 cell invasion could be recapitulated by addition of recombinant CystC fusion proteins. Control or TGF-β1-stimulated (5 ng/ml) 3T3-L1 cells were allowed to invade through Matrigel-coated filters for 48 hr in the absence or presence of recombinant (10 mg/ml) GST, GST-CystC, or GST-D14CystC as indicated in FIG. 2B. […] Data are the mean (±SE) of three independent experiments presented as the percent invasion relative to untreated 3T3-L1 cells. […] Collectively, these findings indicate that 3T3-L1 cell invasion proceeds through cathepsin B-dependent and TGF-β-dependent pathways.

Assay [1] has as its system NMuMG mammary epithelial cells. In words: TGF-β-stimulated actin cytoskeletal reorganization (EMT) in NMuMG cells, rhodamine-phalloidin immunofluorescence. The class given is cell-based, murine. To be noted: overexpression in NMuMG cells; TGF-β1 5 ng/ml, 8 hours. As to the method: (§1) The ability of TGF-β to alter actin cytoskeletal architecture and E-cadherin expression was monitored essentially as described (Piek et al., 1999). Briefly, control-, CystC-, or Δ14CystC-expressing NMuMG cells were allowed to adhere overnight to glass coverslips in 24-well plates (50,000 cells/well). The cells were stimulated the following day with TGF-β1 (5 ng/ml) for 0-36 hours at 37° C. In some experiments, control NMuMG cells were stimulated with TGF-β1 in the absence or presence of 10 μg/ml of recombinant GST, GST-CystC, or GST-Δ14CystC. Upon completion of agonist stimulation, the cells were washed in ice-cold PBS and immediately fixed in 3.7% formaldehyde. After extensive washing in PBS, the cells were blocked in PBS supplemented with 1.5% FBS, followed by incubation with rhodamine-phalloidin (0.25 μM). […]
(§2) To test this hypothesis, the inventor first examined whether CystC and a CystC mutant impaired in its ability to inhibit cathepsin protease activity (i.e., Δ14CystC) could antagonize TGF-β stimulation of EMT in MECs. […] TGF-β stimulation of EMT is studied routinely in murine NMuMG MECs, which readily undergo EMT when treated with TGF-β (Piek et al., 1999; Miettinen et al., 1994; Gotzmann et al., 2004). […] E-cadherin expression was monitored by indirect immunofluorescence with anti-E-cadherin antibodies.
In another experiment, NMuMG cells were infected with ecotropic retrovirus encoding either GFP (i.e., control), CystC, or Δ14CystC, and subsequently were isolated by FACS-sorting for GFP expression to yield stable polyclonal populations of control, CystC, and Δ14CystC-expressing cells. The expression and secretion of recombinant CystC proteins by infected NMuMG and NRK cells was monitored by immunoblotting conditioned-media with anti-CystC antibodies. […] Next, the control, CystC-, and Δ14CystC-expressing NMuMG cells were incubated in the absence or presence of TGF-β1 (5 ng/ml) for 36 hours, whereupon E-cadherin expression was monitored by immunoblotting with anti-E-Cadherin antibodies. […]

Assay [2] deals with NMuMG mammary epithelial cells. In words: TGF-β-mediated downregulation of E-cadherin in NMuMG cells. The class given is cell-based, murine. As to conditions: overexpression in NMuMG cells; TGF-β1 5 ng/ml, 36 hours. As to the method:
as §1
The ability of TGF-β to alter E-cadherin expression also was monitored by immunoprecipitating E-cadherin from Buffer H/1% Triton X-100-solubilized (Schiemann et al., 2003) NMuMG whole cell extracts, followed by immunoblotting with anti-E-cadherin antibodies (1:1000 dilution).
as §2
In another experiment, NMuMG cells were infected with ecotropic retrovirus encoding either GFP (i.e., control), CystC, or Δ14CystC, and subsequently were isolated by FACS-sorting for GFP expression to yield stable polyclonal populations of control, CystC, and Δ14CystC-expressing cells. The expression and secretion of recombinant CystC proteins by infected NMuMG and NRK cells was monitored by immunoblotting conditioned-media with anti-CystC antibodies. […]

In a further assay the test system is NMuMG cells. Nature of the assay: NMuMG cell invasion through Matrigel matrices. The assay is classed as cell-based, murine. As to conditions: expression in NMuMG cells, 48 hours, p<0.05; for TGF-β1-enhanced NMuMG cell invasion: TGF-β1 5 ng/ml. Here is the method: In another experiment, NMuMG cells were infected with ecotropic retrovirus encoding either GFP (i.e., control), CystC, or Δ14CystC, and subsequently were isolated by FACS-sorting for GFP expression to yield stable polyclonal populations of control, CystC, and Δ14CystC-expressing cells. The expression and secretion of recombinant CystC proteins by infected NMuMG and NRK cells was monitored by immunoblotting conditioned-media with anti-CystC antibodies. The same cells were incubated in the absence or presence of TGF-β1 (5 ng/ml) for 8 hours, whereupon alterations in actin cytoskeletal architecture was visualized by direct rhodamine-phalloidin immunofluorescence. Next, the control, CystC-, and Δ14CystC-expressing NMuMG cells were incubated in the absence or presence of TGF-β1 (5 ng/ml) for 36 hours, whereupon E-cadherin expression was monitored by immunoblotting with anti-E-Cadherin antibodies. Finally, control, CystC-, and Δ14CystC-expressing NMuMG cells were allowed to invade through Matrigel matrices in the absence or presence of TGF-β1 (5 ng/ml) for 48 hours.

B1: Δ14CystC: human CystC with deletion of positions 80 to 93 (conserved cysteine proteinase inhibitor motif), retrovirally expressed and secreted (protein)
chain: MAGPLRAPLLLLAILAVALAVSPAAGSSPGKPPRLVGGPMDASVEEEGVRRALDFAVGEYNKASNDMYHSRALQVVRARLGRTTCTKTQPNLDNCPFHDQPHLKRKAFCSFQIYAVPWQGTMTLSKSTCQDA
modifications: left off: small tags and cut ends
For the molecule B1, the “migration of HT1080 cells to fibronectin” value with HT1080 cells was “failed to effect”. For the same molecule, in the assay on 3T3-L1 fibroblasts, the “serum-stimulated (tonic) 3T3-L1 cell invasion” value was “unaffected” and the “TGF-β1-stimulated 3T3-L1 cell invasion” value is reported as “significantly inhibited”. Further, the “actin cytoskeletal reorganization stimulated by TGF-β” value in assay [1] is reported as “prevented”. Also, in assay [2], the “TGF-β-mediated downregulation of E-cadherin” value is listed as “antagonized”. Also, the “TGF-β1-enhanced NMuMG cell invasion” value in the assay on NMuMG cells is given as “inhibited significantly”.

B2: CystC: full-length human Cystatin C (SEQ ID NO:2), C-terminally Myc- and (His)6-tagged, retrovirally expressed and secreted by the cells (protein, listed as Homo sapiens)
chain: MAGPLRAPLLLLAILAVALAVSPAAGSSPGKPPRLVGGPMDASVEEEGVRRALDFAVGEYNKASNDMYHSRALQVVRARKQIVAGVNYFLDVELGRTTCTKTQPNLDNCPFHDQPHLKRKAFCSFQIYAVPWQGTMTLSKSTCQDA
modifications: C-terminal Myc and His6 tags
With B2, the “migration of HT1080 cells to fibronectin” value in the assay with HT1080 cells is listed as “failed to effect”. For the same molecule, in the assay with 3T3-L1 fibroblasts, the “serum-stimulated (tonic) 3T3-L1 cell invasion” value is listed as “inhibited significantly” and the “TGF-β1-stimulated 3T3-L1 cell invasion” value is recorded as “significantly inhibited”. In assay [1], the “actin cytoskeletal reorganization stimulated by TGF-β” value was “prevented”. Moreover, in assay [2], the “TGF-β-mediated downregulation of E-cadherin” value was “antagonized”. In addition, in the assay on NMuMG cells, the “tonic NMuMG cell invasion” value is “significantly inhibited” and the “TGF-β1-enhanced NMuMG cell invasion” value was “inhibited significantly”.
